Patent US5968526A, “T cell epitopes of the major allergens from Dermatophagoides (house dust mite)” (Immulogic Pharamaceutical Corporation, priority 1995, dated 1999)

What was measured:
[1] = system: PBMC from mite-allergic patient; assay: primary T cell (PBMC) proliferation, mite-allergic patient, tritiated thymidine; assay type: cell-based, human; conditions: for CPM ± S.D.: medium 1071 ± 30
Protocol: Peripheral blood mononuclear cells (PBMC) were purified by Ficoll-Hypaque centrifugation of a peripheral blood specimen from mite-allergic patient and were assayed for proliferation in response to various antigens, i.e., affinity-purified Der p I, affinity purified Der p II, various Der p I and Der p II peptides. For assay, 5×10^4 PBMC were cultured in triplicate microwells for 7 days at 37° C. in the presence of various concentrations of antigen in 200 μl RPMI-1640 containing 5% human AB serum. Each well then received 1 μCi tritiated thymidine for 16 hours. The counts incorporated were collected onto glass fiber filters and processed for liquid scintillation counting. […] The CPM +/- standard deviation are shown. The stimulation index of each response (S.I.) is the ratio of the ^3 H-thymidine CPM incorporated by the cells in response to antigen divided by the ^3 H-thymidine CPM incorporated by cells in medium only. […] Thus, these peptides contain Der p I or Der p II T cell epitopes recognized by T cells from this particular allergic patient.

[2] = system: human IgE; assay: direct binding ELISA of IgE to mite allergen proteins and peptides; conditions: for IgE binding (ELISA), modified peptides: plasma of 19 mite-allergic patients and pool of 18, Example XV; for IgE binding (ELISA): pooled human plasma, 20 patients, FIGS. 19-21
Protocol: The coating antigens were removed and the wells are blocked with 0.5% gelatin in PBS, 300 μl/well for 2 hours at room temperature. Pooled human plasma (a mix of plasma samples from 20 patients that were skin test positive for commerical mite extract) was serially diluted with PBS-Tween 20 (PBS with 0.05% nonionic detergent Tween-20 Sigma, St. Louis, Mo.) and 100 μl/well a.backslash.was added and incubated overnight at 4° C. (plasma dilutions were tested in duplicate). The second antibody (biotinylated goat anti-Human IgE, 1:1000, Kirkegaard & Perry Laboratories Inc, Gaithersburg, Md.), was added at 100 μl/well for one hour at room temperature. This solution was removed and streptavidin-HRPO, 1:10000, (Southern Biotechnology Associates, Inc., Birmingham, Ala.) was then added at 100 μl/well for one hour at room temperature (all wells are washed three times with PBS-Tween between each incubation step). TMB Membrane Peroxidase Substrate system (Kirkegaard & Perry Laboratories) was freshly miced, and added at […]. The color was allowed to develop for 2-5 minutes. The reaction was stopped by the addition of […] of 1M phosphoric acid. Plates were read on a Microplate IL310 Autoreader (Biotech Instruments, Winooski, Vt.) with a 450 nm filter. The absorbance levels of duplicate wells were averaged. The order of coating antigens listed vertically in these figure legends corresponds in orDer from left to right to the coating antigens listed for each histogram.
The antigen preparation that was used as a positive control was a mixture of the four major biochemically purified mite allergens (term PMA for Purified Mite Allergen); Der f I, Der f II, Der p I and Der p II. The stock was generated at a concentration of 100 μgs of each protein per millimeter or 400 μgs total protein/ml. This preparation was used on each coated ELISA plate.

Row | Molecule | S.I. ([1]; 10 μg/ml) | CPM ± S.D. ([1]; 10 μg/ml) [CPM] | S.I. ([1]; 30 μg/ml) | CPM ± S.D. ([1]; 30 μg/ml) [CPM] | S.I. ([1]; 100 μg/ml) | CPM ± S.D. ([1]; 100 μg/ml) [CPM] | IgE binding (ELISA), modified peptides [2] | IgE binding (ELISA) [2]
1 | Der p I: affinity purified native group I allergen of Dermatophagoides pteronyssinus (protein) KNRFLMSAEAFEHLKTQFDLNAETNACSINGNAPAEIDLRQMRTVTPIRMQGGCGSCWAFSGVAATESAYLAHRNQSLDLAEQELVDCASQHGCHGDTIPRGIEYIQHNGVVQESYYRYVAREQSCRRPNAQRFGISNYCQIYPPNANKIREALAQTHSAIAVIIGIKDLDAFRHYDGRTIIQRDNGYQPNYHAVNIVGYSNAQGVDYWIVRNSWDTNWGDNGYGYFAANIDLMMIEEYPYVVIL | 0.9 | 920 ± 15 | 2.0 | 2122 ± 93 | 1.4 | 1492 ± 13 | All samples did contain IgE | 
2 | Der p II: affinity purified native group II allergen of Dermatophagoides pteronyssinus (protein) MMYKILCLSLLVAAVARDQVDVKDCANHEIKKVLVPGCHGSEPCIIHRGKPFQLEAVFEANQNTKTAKIEIKASIDGLEVDVPGIDPNACHYMKCPLVKGQQYDIKYTWNVPKIAPKSENVVVTVKVMGDDGVLACAIATHAKIRD | 1.0 | 1113 ± 35 | 2.0 | 2104 ± 43 | 1.0 | 1057 ± 27 | All samples did contain IgE | good binding
3 | biochemically purified Der f-- I: purified native group I allergen of Dermatophagoides farinae (protein) MKFVLAIASLLVLSTVYARPASIKTFEEFKKAFNKNYATVEEEEVARKNFLESLKYVEANKGAINHLSDLSLDEFKNRYLMSAEAFEQLKTQFDLNAETSACRINSVNVPSELDLRSLRTVTPIRMQGGCGSCWAFSGVAATESAYLAYRNTSLDLSEQELVDCASQHGCHGDTIPRGIEYIQQNGVVEERSYPYVAREQRCRRPNSQHYGISNYCQIYPPDVKQIREALTQTHTAIAVIIGIKDLRAFQHYDGRTIIQHDNGYQPNYHAVNIVGYGSTQGDDYWIVRNSWDTTWGDSGYGYFQAGNNLMMIEQYPYVVIM |  |  |  |  |  |  |  | binding
4 | biochemically purified Der f II: purified native group II allergen of Dermatophagoides farinae (protein) DQVDVKDCANNEIKKVMVDGCHGSDPCIIHRGKPFTLEALFDANQNTKTAKTEIKASLDGLEIDVPGIDTNACHFMKCPLVKGQQYDAKYTWNVPKIAPKSENVVVTVKLVGDNGVLACAIATHAKIRD |  |  |  |  |  |  |  | binding
